The values below come from patent US20260137779A1.

Experiment [1] has as its target human CD3 on T (Jurkat) cells (human) (UniProt P07766). Briefly: flow cytometry; PerCP-anti-hCD3e (OKT3) staining of Jurkat cells; supernatant of untransfected 293T cells, no competitor.
The target is the same in experiment [2]. Briefly: flow cytometry; PerCP-anti-hCD3e (OKT3) staining of Jurkat cells; supernatant of GFP-transfected 293T cells (same control values as in paragraph 403).
Experiment [3] has the same target. Briefly: flow cytometry; PerCP-anti-hCD3e (OKT3) staining of Jurkat cells; supernatant of GFP-transfected 293T cells, no competitor.
Experiment [4] has the same target. Briefly: flow cytometry; PerCP-anti-hCD3e (OKT3) staining of Jurkat cells; supernatant of vector #1323, which lacks a secretion peptide (dimert not secreted).
Experiment [5] shares this target. Briefly: flow cytometry; PerCP-anti-hCD3e (OKT3) staining of Jurkat cells; supernatant of vector #1104, which lacks a secretion peptide (dimert not secreted).
Experiment [6] shares this target. Briefly: flow cytometry; PerCP-anti-hCD3e (OKT3) staining of Jurkat cells; supernatant of untransfected 293T cells (same control values as in paragraph 403).
The target is the same in experiment [7]. Briefly: flow cytometry; PerCP-anti-hCD3e (OKT3) staining of Jurkat cells; media alone, no competitor.
Experiment [8] shares this target. Briefly: flow cytometry; PerCP-anti-hCD3e (OKT3) staining of Jurkat cells; media alone, no competitor (same control values as in paragraph 403).

For PerCP-anti-hCD3e antibody (#OKT3), the % CD3 positive (Q2+Q3) in experiment [1] worked out at 79.2%; in experiment [2], 78.7%; in experiment [3], 78.7%; in experiment [4], 79.4%; in experiment [5] it was 77.7%; in experiment [6] it was 79.2%. For the same substance, the % CD3 positive (Q2+Q3) in experiment [7] and in experiment [8] was 77.6% throughout.
